Source: patent US20250076311A1 (Chugai, published 2025)
Changes are numbered by the printed parent chain.

How the values were obtained:
[1] = target: T1, cynomolgus monkey FcγRIIIaS extracellular domain with C-terminal His-tag (cynomolgus monkey, UniProt Q8SPW2 21-206 at identity 1.00)); test: SPR, KD(SG1)/KD(variant)
T1 construct: also called cyno FcgRIIIaS; cynoFcγRIIIaS
T1 chain: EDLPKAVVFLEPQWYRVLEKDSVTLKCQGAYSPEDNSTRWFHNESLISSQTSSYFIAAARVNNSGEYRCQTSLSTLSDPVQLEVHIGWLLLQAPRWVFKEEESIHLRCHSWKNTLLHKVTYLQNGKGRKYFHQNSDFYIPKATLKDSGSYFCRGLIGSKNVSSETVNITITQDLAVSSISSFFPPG
Procedure: (§1) The kinetic analysis of interactions between these antibodies and FcγR was carried out using BIACORE® T200 or BIACORE® 4000 (GE Healthcare). HBS-EP+ (GE Healthcare) was used as the running buffer, and the measurement temperature was set to 25° C. […] After the measurement, the antibody captured on the chip was washed off by allowing reaction with 10 mM glycine-HCl, pH1.5 and 25 mM NaOH so that the chip was regenerated and used repeatedly. The sensorgrams obtained as measurement results were analyzed by the 1:1 Langmuir binding model using the BIACORE® Evaluation Software to calculate the binding rate constant ka (L/mol/s) and dissociation rate constant kd (1/s), and the dissociation constant KD (mol/L) was calculated from these values. […] Regarding such interactions, KD values were calculated using the following 1:1 binding model described in BIACORE® T100 Software Handbook BR1006-48 Edition AE.

[2] = target: T1, cynomolgus monkey FcγRIIIaS …; test: SPR, antibody captured, FcγR analyte
Procedure: as §1

[3] = target: T2, cynomolgus monkey FcγRIIb extracellular domain, His-tagged (cynomolgus monkey); test: SPR Biacore, KD(SG1)/KD(variant)
T2 construct: also called cyno FcγRIIb; cynoFcγRIIb; not shown: C-terminal His-tag
T2 chain: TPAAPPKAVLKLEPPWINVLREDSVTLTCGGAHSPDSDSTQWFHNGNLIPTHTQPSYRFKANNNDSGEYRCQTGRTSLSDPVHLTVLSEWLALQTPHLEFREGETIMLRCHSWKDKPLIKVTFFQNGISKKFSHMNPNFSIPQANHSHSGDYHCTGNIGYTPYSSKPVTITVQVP
Procedure: as §1

[4] = target: T3, cynomolgus monkey FcγRIIa3 extracellular domain, His-tagged (cynomolgus monkey); test: SPR Biacore, KD(SG1)/KD(variant)
T3 construct: also called cyno FcγRIIa3; cynoFcgRIIa3; not shown: C-terminal His-tag
T3 chain: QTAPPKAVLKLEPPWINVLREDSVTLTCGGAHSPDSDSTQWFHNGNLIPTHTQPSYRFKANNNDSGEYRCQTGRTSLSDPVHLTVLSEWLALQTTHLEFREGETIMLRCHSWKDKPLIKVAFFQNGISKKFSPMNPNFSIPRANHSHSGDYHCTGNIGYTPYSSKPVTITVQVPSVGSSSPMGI
Procedure: as §1

[5] = target: T4, human FcγRIIaR extracellular domain, His-tagged (human, UniProt P12318 34-217); test: SPR Biacore, KD(SG1)/KD(variant)
T4 construct: also called human FcγRIIa (type R); FcgRIIaR; not shown: C-terminal His-tag
T4 chain: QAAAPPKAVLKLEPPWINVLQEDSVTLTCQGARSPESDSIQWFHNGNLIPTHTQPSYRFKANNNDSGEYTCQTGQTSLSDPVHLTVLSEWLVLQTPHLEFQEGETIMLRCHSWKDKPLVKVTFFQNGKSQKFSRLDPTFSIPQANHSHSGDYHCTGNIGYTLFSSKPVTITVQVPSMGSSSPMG
Procedure: as §1

[6] = target: T5, cynomolgus monkey FcγRIIa1 extracellular domain, His-tagged (cynomolgus monkey); test: SPR Biacore, antibody captured, FcgR analyte
T5 construct: also called cyno FcγRIIa1; cynoFcgRIIa1; not shown: C-terminal His-tag
T5 chain: T3 chain with T95P, A121T, S128A, P133H, N135D

[7] = target: T6, cynomolgus monkey FcγRIIa2 extracellular domain, His-tagged (cynomolgus monkey); test: SPR Biacore, antibody captured, FcgR analyte
T6 construct: also called cyno FcγRIIa2; cynoFcgRIIa2; not shown: C-terminal His-tag
T6 chain: T3 chain with I127K, K130N, P133H, R142Q

B1: MS1032LO06-MY335 (antibody, human IgG1, kappa)
heavy: QVTLKESGPVLVKPTETLTLTCTVSGIDLSHDDISWVRQAPGKGLEWVGIISYAGSTYYASWAKGRLTISKDTSKNQVVLTMTNMDPVDTATYYCARGVPAYSHGGDLWGQGTLVTVSSASTKGPSVFPLAPSSKSTSGGTAALGCLVKDYFPEPVTVSWNSGALTSGVHTFPAVLQSSGLYSLSSVVTVPSSSLGTQTYICNVNHKPSNTKVDKKVEPKSCDKTHTCPPCPAPELLTGPSVFLFPPKPKDTLMISRTPEVTCVVVDVSDEDPEVKFNWYVDGVEVHNAKTKPREEQYNSTYRVVSVLTVLHRDWLNGKEYKCKVSNKALPKPIEKTISKAKGQPREPQVYTLPPSREEMTKNQVSLTCLVKGFYPSDIAVEWESNGQPENNYKTTPPVLDSDGSFFLYSKLTVKKSRWQQGNVFSCSVMHEALHNHYTQKSLSLSP
light: DIVMTQSPATLSLSPGERATLSCTSSQSVYHANWLSWFQQKPGQPPKLLIYWASTLAYGVPSRFSGSGSGTDFTLTISSLQPEDAATYYCAGGYGGGRYAFGQGTKVEIKRTVAAPSVFIFPPSDEQLKSGTASVVCLLNNFYPREAKVQWKVDNALQSGNSQESVTEQDSKDSTYSLSSTLTLSKADYEKHKVYACEVTHQGLSSPVTKSFNRGEC
notes: also called M103205H795-MY335; copies: 2 + 2
KD fold (SG1 = 1) [1]: 0.24 fold
Kd [2]: 1.5 µM

B2: MS1032LO06-MY344 (antibody, human IgG1, kappa)
heavy: B1 heavy with T238N, Q297L
light: B1 light
notes: also called M103205H795-MY344; copies: 2 + 2
KD fold (SG1 = 1) [1]: 0.07 fold
Kd [2]: 4.9 µM

B3: MS1032LO06-PK2 (antibody, human IgG1, kappa)
heavy: B1 heavy with T238N, D270E, R313Q, P398M, S402R
light: B1 light
notes: also called M103205H795-PK2; copies: 2 + 2
KD fold (SG1 = 1) [1]: 0.09 fold
Kd [2]: 3.9 µM

B4: M103205H795-MY013/M103202L889-SK1 (antibody, human IgG1, kappa, name in EU numbering)
heavy: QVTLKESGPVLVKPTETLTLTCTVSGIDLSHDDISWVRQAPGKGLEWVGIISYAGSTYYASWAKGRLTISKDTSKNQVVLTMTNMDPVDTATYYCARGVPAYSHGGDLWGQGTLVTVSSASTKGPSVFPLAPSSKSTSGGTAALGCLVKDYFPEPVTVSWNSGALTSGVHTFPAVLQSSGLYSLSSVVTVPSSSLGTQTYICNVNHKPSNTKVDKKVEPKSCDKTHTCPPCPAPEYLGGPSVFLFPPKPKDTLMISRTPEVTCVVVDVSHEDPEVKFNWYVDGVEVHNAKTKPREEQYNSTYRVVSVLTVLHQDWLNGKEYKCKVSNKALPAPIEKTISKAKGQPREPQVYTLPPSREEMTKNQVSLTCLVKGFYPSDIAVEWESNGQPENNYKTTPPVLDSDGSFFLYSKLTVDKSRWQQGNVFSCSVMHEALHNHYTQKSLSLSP
light: B1 light
notes: Substitution introduced into M103205H795-SG1; EU numbering
KD fold (SG1 = 1) [3]: 0.5 fold

B5: M103205H795-MY040/M103202L889-SK1 (antibody, human IgG1, kappa, name in EU numbering)
heavy: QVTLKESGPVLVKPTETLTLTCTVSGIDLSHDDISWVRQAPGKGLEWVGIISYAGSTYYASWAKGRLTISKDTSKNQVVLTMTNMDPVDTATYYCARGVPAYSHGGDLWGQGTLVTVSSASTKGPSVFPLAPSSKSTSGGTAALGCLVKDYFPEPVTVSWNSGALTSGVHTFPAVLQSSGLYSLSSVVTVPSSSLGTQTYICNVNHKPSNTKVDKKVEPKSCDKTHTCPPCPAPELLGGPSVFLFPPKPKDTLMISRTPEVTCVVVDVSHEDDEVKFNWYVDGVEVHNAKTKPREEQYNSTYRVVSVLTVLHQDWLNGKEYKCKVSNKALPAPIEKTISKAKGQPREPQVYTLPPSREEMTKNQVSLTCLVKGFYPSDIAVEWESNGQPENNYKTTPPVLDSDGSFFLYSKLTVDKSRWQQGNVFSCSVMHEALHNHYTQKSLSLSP
light: B1 light
notes: as for B4
KD fold (SG1 = 1) [4]: 3.9 fold
KD fold (SG1 = 1) [5]: 0.9 fold
Kd [6]: 5.5 µM

B6: M103205H795-MY042/M103202L889-SK1 (antibody, human IgG1, kappa, name in EU numbering)
heavy: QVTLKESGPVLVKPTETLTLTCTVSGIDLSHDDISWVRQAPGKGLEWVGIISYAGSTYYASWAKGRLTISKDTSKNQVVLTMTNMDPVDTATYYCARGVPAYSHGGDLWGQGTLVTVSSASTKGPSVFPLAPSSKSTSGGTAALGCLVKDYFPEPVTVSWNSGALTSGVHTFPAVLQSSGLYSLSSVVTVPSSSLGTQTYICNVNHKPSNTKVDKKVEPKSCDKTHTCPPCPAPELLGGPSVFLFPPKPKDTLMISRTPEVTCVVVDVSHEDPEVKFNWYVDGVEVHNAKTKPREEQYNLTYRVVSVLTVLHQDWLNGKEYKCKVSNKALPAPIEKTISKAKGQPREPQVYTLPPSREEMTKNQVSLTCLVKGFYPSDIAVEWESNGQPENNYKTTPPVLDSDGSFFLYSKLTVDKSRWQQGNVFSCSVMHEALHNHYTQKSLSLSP
light: B1 light
notes: as for B4
Kd [6]: 0.51 µM

B7: M103205H795-MY061/M103202L889-SK1 (antibody, human IgG1, kappa, name in EU numbering)
heavy: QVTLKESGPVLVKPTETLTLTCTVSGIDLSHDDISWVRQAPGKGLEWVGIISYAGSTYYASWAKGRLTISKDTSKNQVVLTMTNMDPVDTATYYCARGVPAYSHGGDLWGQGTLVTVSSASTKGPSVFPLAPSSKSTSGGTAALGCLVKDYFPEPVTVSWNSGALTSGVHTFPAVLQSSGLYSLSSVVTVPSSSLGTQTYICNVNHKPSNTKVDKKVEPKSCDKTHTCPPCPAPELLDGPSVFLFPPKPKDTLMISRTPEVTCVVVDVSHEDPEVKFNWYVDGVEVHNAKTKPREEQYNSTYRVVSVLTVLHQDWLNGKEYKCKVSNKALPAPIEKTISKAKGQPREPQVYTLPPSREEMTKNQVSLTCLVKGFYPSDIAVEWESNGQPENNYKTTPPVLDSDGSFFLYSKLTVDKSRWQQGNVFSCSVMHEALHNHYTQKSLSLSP
light: B1 light
notes: as for B4
KD fold (SG1 = 1) [3]: 0.4 fold
KD fold (SG1 = 1) [5]: 0.8 fold
Kd [7]: 6.8 µM
